# Results as given in patent US20250026827A1 (Alector, published 2025).
# B1: SB-1-4 (antibody, V domains shown)
# VH: QVQLVESGGGVVQPGGSLRLSCAASGFTFSAYGMNWVRQAPGKGLEWVSAIRASGGATYYADSVKGRFTISRDNSKNTLYLQMNSLRAEDTAVYYCAKDFTEVVGWLGMDVWGQGTTVTVSS
# VL: EIVMTQSPGTLSLSPGERATLSCRASQSVSSSYLAWYQQKPGQAPRLLIYGASSRATGIPDRFSGSGSGTDFTLTISRLEPEDFAVYYCQLLGSSPRTFGGGTKVEIK
# notes: IgG
# B2: SB-2-7 Fab (Fab, V domains shown)
# VH: EVQLLESGGGLVQPGGSLRLSCAASGFTFARYGMHWVRQAPGKGLEWVSAISGLAGPTYADSVKGRFTISRDNSKNTLYLQMNSLRAEDTAVYYCARDQTAAAAIWGMDVWGQGTTVTVSS
# VL: EVVLTQSPGTLSLSPGERATLSCRASQSVSSSYLAWYQQKPGQAPRLLIYGASSRATGIPDRFSGSGSGTDFTLTISRLEPEDFAVYYCQQSSSHPFTFGGGTKVEIK
# notes: Fab by papain digestion
# B3: SB-1-5 (antibody, V domains shown)
# VH: QVQLVESGGGVVQPGRSLRLSCAASGFTFSAYGMNWVRQAPGKGLEWVSAISASGRSTFYADSVKGRFTISRDNSKNTLYLQMNSLRAEDTAVYYCAKDFTEVVGWLGMDVWGQGTTVTVSS
# VL: EIVMTQSPGTLSLSPGERATLSCRASQSVSSSYLAWYQQKPGQAPRLLIYGASSRATGIPDRFSGSGSGTDFTLTISRLEPEDFAVYYCQLLGSSPRTFGGGTKVEIK
# notes: IgG
# B4: SB-2-10 Fab (Fab, V domains shown)
# VH: EVQLLESGGGLVQPGGSLRLSCAASGFTFGSYGMHWVRQAPGKGLEWVSAISGLAGQTYADSVKGRFTISRDNSKNTLYLQMNSLRAEDTAVYYCARDQTAAAAIWGMDVWGQGTTVTVSS
# VL: EIVLTQSPGTLSLSPGERATLSCRASQSVSSSYLAWYQQKPGQAPRLLIYGASSRATGIPDRFSGSGSGTDFTLTISRLEPEDFAVYYCQQSSSHPFTFGGGTKVEIK
# notes: Fab by papain digestion
# B5: SB-2-9 Fab (Fab, V domains shown)
# VH: QVQLVESGGGVVQPGRSLRLSCAASGFTFKTYGMHWVRQAPGKGLEWVAHIWYEGSNKVYADSVKGRFTISRDNSKNTLYLQMNSLRAEDTAVYYCARDQTAAAAIWGMDVWGQGTTVTVSS
# VL: EVVLTQSPGTLSLSPGERATLSCRASQSVSSSYLAWYQQKPGQAPRLLIYGASSRATGIPDRFSGSGSGTDFTLTISRLEPEDFAVYYCQQSSSHPFTFGGGTKVEIK
# notes: Fab by papain digestion
# B6: SB-8-16 (antibody, V domains shown)
# VH: QVQLQESGPGLVKPSETLSLTCAVSGYSISAHYYWGWIRQPPGKGLEWIGSIFHSGHTYYNPSLKSRVTISVDTSKNQFSLKLSSVTAADTAVYYCARAGAMTPAGMDVWGQGTTVTVSS
# VL: EIVMTQSPGTLSLSPGERATLSCRASQSVSSSYLAWYQQKPGQAPRLLIYGASNRATGIPDRFSGSGSGTDFTLTISRLEPEDFAVYYCQQVYSSPYTFGGGTKVEIK
# notes: IgG
# B7: SB-2-8 Fab (Fab, V domains shown)
# VH: QVQLVESGGGVVQPGRSLRLSCAASGFTFLDYGMHWVRQAPGKGLEWVSAISAFAGSTYADSVKGRFTISRDNSKNTLYLQMNSLRAEDTAVYYCARDQTAAAAIWGMDVWGQGTTVTVSS
# VL: EVVLTQSPGTLSLSPGERATLSCRASQSVSSSYLAWYQQKPGQAPRLLIYGASSRATGIPDRFSGSGSGTDFTLTISRLEPEDFAVYYCQQSSSHPFTFGGGTKVEIK
# notes: Fab by papain digestion
# B8: SB-2-11 Fab (Fab, V domains shown)
# VH: QVQLVESGGGLVQPGGSLRLSCAASGFTFARYGMHWVRQAPGKGLEWVSAISGLAGPTYADSVKGRFTISRDNSKNTLYLQMNSLRAEDTAVYYCARDQTAAWGIWGMDVWGQGTTVTVSS
# VL: EIVLTQSPGTLSLSPGERATLSCRASQSVSSSYLAWYQQKPGQAPRLLIYGASSRATGIPDRFSGSGSGTDFTLTISRLEPEDFAVYYCQQSSSHPFTFGGGTKVEIK
# notes: Fab by papain digestion
# B9: SB-1-5 Fab (Fab, V domains shown)
# VH: QVQLVESGGGVVQPGRSLRLSCAASGFTFSAYGMNWVRQAPGKGLEWVSAISASGRSTFYADSVKGRFTISRDNSKNTLYLQMNSLRAEDTAVYYCAKDFTEVVGWLGMDVWGQGTTVTVSS
# VL: EIVMTQSPGTLSLSPGERATLSCRASQSVSSSYLAWYQQKPGQAPRLLIYGASSRATGIPDRFSGSGSGTDFTLTISRLEPEDFAVYYCQLLGSSPRTFGGGTKVEIK
# notes: Fab by papain digestion
# B10: SB-2-10 (antibody, V domains shown)
# VH: EVQLLESGGGLVQPGGSLRLSCAASGFTFGSYGMHWVRQAPGKGLEWVSAISGLAGQTYADSVKGRFTISRDNSKNTLYLQMNSLRAEDTAVYYCARDQTAAAAIWGMDVWGQGTTVTVSS
# VL: EIVLTQSPGTLSLSPGERATLSCRASQSVSSSYLAWYQQKPGQAPRLLIYGASSRATGIPDRFSGSGSGTDFTLTISRLEPEDFAVYYCQQSSSHPFTFGGGTKVEIK
# notes: IgG
# B11: SB-8-14 (antibody, V domains shown)
# VH: QVQLQESGPGLVKPSETLSLTCAVSGYSISPHYYWGWIRQPPGKGLEWIGSIYHSGHTYYNPSLKSRVTISVDTSKNQFSLKLSSVTAADTAVYYCARGGAMTPAGMDVWGQGTTVTVSS
# VL: EIVMTQSPGTLSLSPGERATLSCRASQSVSSSYLAWYQQKPGQAPRLLIYGASNRATGIPDRFSGSGSGTDFTLTISRLEPEDFAVYYCQQVYSSPYTFGGGTKVEIK
# notes: IgG
# B12: SB-2-9 (antibody, V domains shown)
# VH: QVQLVESGGGVVQPGRSLRLSCAASGFTFKTYGMHWVRQAPGKGLEWVAHIWYEGSNKVYADSVKGRFTISRDNSKNTLYLQMNSLRAEDTAVYYCARDQTAAAAIWGMDVWGQGTTVTVSS
# VL: EVVLTQSPGTLSLSPGERATLSCRASQSVSSSYLAWYQQKPGQAPRLLIYGASSRATGIPDRFSGSGSGTDFTLTISRLEPEDFAVYYCQQSSSHPFTFGGGTKVEIK
# notes: IgG
# B13: SB-1-4 Fab (Fab, V domains shown)
# VH: QVQLVESGGGVVQPGGSLRLSCAASGFTFSAYGMNWVRQAPGKGLEWVSAIRASGGATYYADSVKGRFTISRDNSKNTLYLQMNSLRAEDTAVYYCAKDFTEVVGWLGMDVWGQGTTVTVSS
# VL: EIVMTQSPGTLSLSPGERATLSCRASQSVSSSYLAWYQQKPGQAPRLLIYGASSRATGIPDRFSGSGSGTDFTLTISRLEPEDFAVYYCQLLGSSPRTFGGGTKVEIK
# notes: Fab by papain digestion
# B14: SB-40-19 (antibody, V domains shown)
# VH: QVQLVQSGAEVKKPGASVKVSCKASGYTFTSYYMVWVRQAPGQGLEWMGIINPSSGATNYAQKFQGRVTMTTDTSTSTAYMELRSLRSDDTAVYYCARDTGEYSYSPHGMDVWGQGTTVTVSS
# VL: EIVLTQSPATLSLSPGERATLSCRASQSVSSYLAWYQQKPGQAPRLLIYDSSNRATGIPARFSGSGSGTDFTLTISSLEPEDFAVYYCQQRDEHPPWTFGGGTKVEIK
# notes: IgG
# B15: SB-40-18 (antibody, V domains shown)
# VH: QVQLVQSGAEVKKPGASVKVSCKASGYTFTSYYMAWVRQAPGQRLEWMGWINPAVGATIYSQKFQGRVTITRDTSASTAYMELSSLRSEDTAVYYCARDTGEYSYSPHGMDVWGQGTTVTVSS
# VL: EIVLTQSPATLSLSPGERATLSCRASQSVSSYLAWYQQKPGQAPRLLIYDSSNRATGIPARFSGSGSGTDFTLTISSLEPEDFAVYYCQQRDEHPPWTFGGGTKVEIK
# notes: IgG
# Columns and labels:
# human SIRPα on cells [1] = target: T1, human SIRPα on cells (human, UniProt P78324 31-504); test: flow cytometry;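 on FOB: antibody binding to cells detected with a PE-labelled secondary antibody, given as mean fluorescence intensity relative to background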
# T1 construct: Whole entry
# [2] = target: T2, mouse SIRPβ1 on CHO cells (mouse); test: flow cytometry;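 on FOB: antibody binding to cells detected with a PE-labelled secondary antibody, given as mean fluorescence intensity relative to background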
# T2 construct: Whole entry
# T2 chain: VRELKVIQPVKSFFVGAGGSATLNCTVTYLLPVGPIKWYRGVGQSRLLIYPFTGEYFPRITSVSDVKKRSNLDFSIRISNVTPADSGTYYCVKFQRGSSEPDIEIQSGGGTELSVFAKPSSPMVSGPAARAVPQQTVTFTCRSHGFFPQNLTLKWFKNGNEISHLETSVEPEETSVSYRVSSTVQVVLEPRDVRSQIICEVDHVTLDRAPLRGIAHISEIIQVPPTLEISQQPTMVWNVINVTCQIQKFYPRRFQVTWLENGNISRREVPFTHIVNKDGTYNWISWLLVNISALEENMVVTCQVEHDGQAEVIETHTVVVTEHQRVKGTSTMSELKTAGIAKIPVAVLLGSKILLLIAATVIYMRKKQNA
# [3] = target: T3, human SIRPβ1 isoform 1 on cells (human, UniProt O00241 30-398); test: flow cytometry;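 further: antibody binding to cells detected with a PE-labelled secondary antibody, given as mean fluorescence intensity relative to background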
# T3 construct: On CHO cells (low level), on BWZ/BW5147.G.1.4 cells (reporter cells co-express human DAP12) or on primary human myeloid cells; also called huSIRPβ1; BWZ-huSIRPβ1
# Method: (§1) Cells were then washed twice and incubated in 100 ul FACS buffer containing 0.5 μg/ml PE-conjugated secondary antibody for 30 minutes on ice. Cells were washed twice in cold FACS buffer and acquired on a BD FACS Canto. Data analysis and calculation of mean fluorescence intensity (MFI) values or 00 positive cells was performed with FlowJo (TreeStar) software version 10.0.7.
# (§2) Given the high sequence similarity between receptors of the SIRPβ family, anti-SIRPβ1 antibodies were also screened for cross-reactivity to human SIRPα.
# human SIRPα on cells [4] = target: T1, human SIRPα on cells; test: flow cytometry; remark: listed apart in the source;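 on FOB: antibody binding to cells detected with a PE-labelled secondary antibody, given as mean fluorescence intensity relative to background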
# Method: as §1, §2
# [5] = target: T2, mouse SIRPβ1 on CHO cells; test: flow cytometry
# Method: as §1, §2
# [6] = target: T4, human SIRPα domain 1 (D1) Fc fusion (human, UniProt P78324 32-149); test: Octet, IgG avid
# T4 construct: also called human SIRPα D1-Fc; Human SIRPα Fc; not shown: C-terminal human IgG1 Fc
# [7] = target: T3, human SIRPβ1 isoform 1 on cells; test: cell binding titration; target not given
# [8] = target: T5, human SIRPβ1 domain 1 (D1) Fc fusion (human, UniProt O00241 30-148); test: Octet, Fab monovalent
# T5 construct: Made in HEK293/T cells with a heterologous signal peptide; also called Human SIRPβ1 D1-Fc; Human SIRPβ1-Fc; not shown: C-terminal human IgG1 Fc
# T5 sequence (O00241 30-148 limits assumed): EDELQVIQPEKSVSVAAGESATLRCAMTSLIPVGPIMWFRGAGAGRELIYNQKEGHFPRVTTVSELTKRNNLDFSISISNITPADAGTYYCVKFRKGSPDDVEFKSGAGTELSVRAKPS
# T3 sequence (O00241 30-398): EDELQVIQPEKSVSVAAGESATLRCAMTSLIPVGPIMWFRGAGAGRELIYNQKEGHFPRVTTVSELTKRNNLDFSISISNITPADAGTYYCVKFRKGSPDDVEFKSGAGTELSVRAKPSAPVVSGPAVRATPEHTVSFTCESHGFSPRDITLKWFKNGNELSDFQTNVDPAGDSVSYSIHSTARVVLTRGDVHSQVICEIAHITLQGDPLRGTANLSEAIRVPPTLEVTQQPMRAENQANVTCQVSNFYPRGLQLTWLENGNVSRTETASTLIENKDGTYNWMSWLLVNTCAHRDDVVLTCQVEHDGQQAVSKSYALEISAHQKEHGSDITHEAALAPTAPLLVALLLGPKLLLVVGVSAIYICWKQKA
Binder,binding result (human SIRPα on cells [1]),binding result [2],FOB [3],FOB (human SIRPα on cells [4]),FOB [5],binding result [6],EC50 [7],Kd [8],Kd [6]
B1,no binding (tested: 1 ug/ml),no binding (tested: 1 ug/ml),3 fold over background,1 fold over background,1 fold over background,no binding (tested: 100 nM),0.073 nM,–,–
B2,–,–,–,–,–,–,–,6.21 nM,–
B3,no binding (tested: 1 ug/ml),no binding (tested: 1 ug/ml),3 fold over background,1 fold over background,2 fold over background,no binding (tested: 100 nM),0.038 nM,–,–
B4,–,–,–,–,–,–,–,12.3 nM,–
B5,–,–,–,–,–,–,–,19.2 nM,–
B6,no binding (tested: 1 ug/ml),no binding (tested: 1 ug/ml),9 fold over background,1 fold over background,2 fold over background,no binding (tested: 100 nM),0.147 nM,–,–
B7,–,–,–,–,–,–,–,5.02 nM,–
B8,–,–,–,–,–,–,–,4.4 nM,–
B9,–,–,–,–,–,–,–,82.4 nM,–
B10,no binding (tested: 1 ug/ml),no binding (tested: 1 ug/ml),4 fold over background,1 fold over background,2 fold over background,no binding (tested: 100 nM),0.234 nM,–,–
B11,–,no binding (tested: 1 ug/ml),7 fold over background,–,1 fold over background,–,0.304 nM,–,18.3 nM
B12,no binding (tested: 1 ug/ml),no binding (tested: 1 ug/ml),4 fold over background,1 fold over background,2 fold over background,no binding (tested: 100 nM),0.469 nM,–,–
B13,–,–,–,–,–,–,–,43.3 nM,–
B14,no binding (tested: 1 ug/ml),no binding (tested: 1 ug/ml),3 fold over background,1 fold over background,2 fold over background,no binding (tested: 100 nM),0.713 nM,–,–
B15,no binding (tested: 1 ug/ml),no binding (tested: 1 ug/ml),4 fold over background,1 fold over background,2 fold over background,no binding (tested: 100 nM),0.32 nM,–,–
